Test results from US20110117113A1, “IMMUNOGLOBULIN SINGLE VARIABLE DOMAIN DIRECTED AGAINST HUMAN CXCR4 AND OTHER CELL ASSOCIATED PROTEINS AND METHODS TO GENERATE THEM” (priority 2009, published 2011).
Blank lines part the entries; values can stand above or below the molecule they belong to.

What was measured:
[1] = target: wildtype human CXCR4 (pcDNA3.1-CXCR4, expressed in HEK293T) (human) (UniProt P61073); assay: competition with [125I]-CXCL12, HEK293T-CXCR4 membranes
[2] = target: CXCR4 mutation library clone 1129 (F189V) (human) (UniProt P61073); assay: immunofluorescence on HEK-293T expressing the clone, normalised to wild type
[3] = target: CXCR4 mutation library clone 2396 (S178C) (human) (UniProt P61073); assay: as above
[4] = target: CXCR4 mutation library clone 465 (F189L, S319P, V155E) (human) (UniProt P61073); assay: as above
[5] = target: CXCR4 mutation library clone 2084 (D187V) (human) (UniProt P61073); assay: as above
[6] = target: CXCR4 mutation library clone 414 (C218R, E179V, S351T) (human) (UniProt P61073); assay: as above
[7] = target: CXCR4 mutation library clone 1057 (K230E, S178R) (human) (UniProt P61073); assay: as above
[8] = target: CXCR4 mutation library clone 3630 (W195R) (human) (UniProt P61073); assay: as above
[9] = target: CXCR4 mutation library clone 3728 (D187A, Y157C) (human) (UniProt P61073); assay: as above
[10] = target: CXCR4 mutation library clone 2834 (E179V, G258E) (human) (UniProt P61073); assay: as above
[11] = target: CXCR4 mutation library clone 185 (E277A, I245V, N298S) (human) (UniProt P61073); assay: as above
[12] = target: CXCR4 mutation library clone 2270 (V196E) (human) (UniProt P61073); assay: as above
[13] = target: CXCR4 mutation library clone 2184 (P191T) (human) (UniProt P61073); assay: as above
[14] = target: CXCR4 mutation library clone 913 (F189S, K308R) (human) (UniProt P61073); assay: as above
[15] = target: CXCR4 mutation library clone 709 (P163L, S178I) (human) (UniProt P61073); assay: as above
[16] = target: CXCR4 mutation library clone 3622 (E277G) (human) (UniProt P61073); assay: as above
[17] = target: CXCR4 mutation library clone 914 (N192K) (human, UniProt P61073 1-352); assay: as above
[18] = target: wildtype human CXCR4 (pcDNA3.1-CXCR4, expressed in HEK293T) (human) (UniProt P61073); assay: competition with [125I]-238D4, HEK293T-CXCR4 membranes
[19] = target: wildtype human CXCR4 (pcDNA3.1-CXCR4, expressed in HEK293T) (human) (UniProt P61073); assay: competition with [125I]-238D2, HEK293T-CXCR4 membranes
CXCR4 (N119A) [20] = target: T1, CXCR4 (N119A) (Homo sapiens, UniProt P61073, N119A); assay: Basal inositol phosphate accumulation in HEK293T cells transiently expressing CXCR4 (N119A); type: cell-based; conditions: for functional profile on CXCR4 (N119A) (in words): ligand-induced alteration of basal inositol phosphate accumulation; for reduction of the constitutively increased basal signalling of CXCR4 (N119A): basal inositol phosphate accumulation, HEK293T cells transiently expressing CXCR4 (N119A)
T1 construct: expressed in transfected cells; host or cells: HEK293T, transient; membranes in A4, whole cells in A5
Text: The functional profile of monovalent Nanobodies 238D2 and 238D4 as well as their bivalent fusion products L3 and L8 on CXCR4 (N119A) were investigated by measurement of the ligand-induced alteration of the basal inositol phosphate accumulation. HEK293T cells transiently expressing CXCR4 (N119A) show a 3-8 times higher basal rate of inositol phosphate accumulation compared to wild type CXCR4 or mock (which are virtually at the same level). […] The nanobody-induced reduction of basal inositol phosphate accumulation was antagonized by the selective neutral CXCR4 antagonist plerixafor confirming that the observed […] effects are mediated via CXCR4 (N119A).

CXCR4 [21] = target: T2, CXCR4 (Homo sapiens, UniProt P61073); assay: Competition binding, displacement of [^125I]-238D2 on membranes from HEK293T cells transiently expressing CXCR4
T2 construct: expressed in transfected cells; host or cells: HEK293T, transient; membrane fraction
Protocol: (§1) Iodine incorporation and specific activity were controlled via precipitation of the protein with trichloroacetic acid.
(§2) Competition binding assay—Periplasmic fractions were screened in a competition binding assay using membranes from HEK293T cells transiently expressing CXCR4. […] Membranes were then harvested over polyethylenimine (0.5%)-treated Whatman GF/C filter plates and washed three times with ice cold binding buffer containing 500 mM NaCl. Plates were counted by liquid scintillation.
(§3) Characterization of Nanobody binding to CXCR4—Following purification, receptor binding to characteristics for 238D2 and 238D4 were investigated on cell membranes from HEK293T cells transiently expressing CXCR4.
(§4) Data analysis and presentation—Data are presented as mean±S.E.M. from n independent experiments. Concentration response curves (E/[A] curves) were fitted to the Hill equation using an iterative, least-squares method (GraphPad Prism 4.0, GraphPad Software, San Diego, Calif.) to provide maximal inhibitory effects (Imax), half maximal effective (EC50) or inhibitory concentrations (IC50). Competition binding affinities and functional antagonist affinities (Ki) were calculated using the Cheng and Prusoff equation Ki=IC50/(1+[agonist]/EC50) (Cheng & Prusoff, 1973).

CXCR4 [22] = target: T2, CXCR4; assay: Competition binding, displacement of [^125I]-238D4 on membranes from HEK293T cells transiently expressing CXCR4
Protocol: as §1, §2, §3, §4

CXCR4 (N119A) [23] = target: T1, CXCR4 (N119A); assay: Competition binding with [125I]-CXCL12 on constitutively active CXCR4 mutant N119A; conditions: competition with [125I]-CXCL12 (40 pM); for binding to CXCR4 (N119A) (in words): highest nanobody test concentration 2 μM
Protocol: Competition binding assay—Periplasmic fractions were screened in a competition binding assay using membranes from HEK293T cells transiently expressing CXCR4. In short, periplasmic extracts (1:10) or ligands were pre-incubated with membranes in binding buffer (50 mM HEPES (pH 7.4), 1 mM CaCl2, 5 mM MgCl2, 100 mM NaCl, 0.5% bovine serum albumin) supplemented with 0.5% BSA for 1 h at 22° C. before the addition of [^125I]-CXCL12 (40 pM) or [^125I]-238D2 (3 nM) or [^125I]-238D4 (3 nM) for additional 2 h at 22° C. […] Membranes were then harvested over polyethylenimine (0.5%)-treated Whatman GF/C filter plates and washed three times with ice cold binding buffer containing 500 mM NaCl. Plates were counted by liquid scintillation.
CXCR4—specific Nanobodies behave as neutral antagonists or inverse agonists on constitutively active mutants of CXCR4—The CXCR4—specific monovalent Nanobodies 238D2 and 238D4 as well as their bivalent fusion products L3 and L8 were investigated on the constitutively active CXCR4 mutant N119A (equivalent to N3.35A in the Ballestros-Weinstein numbering of class A GPCRs). […] Despite of the large number of CAMs for other class A GPCRs and further efforts to generate additional CAMs for CXCR4 (Berchiche et al., 2007), the N119 mutants of CXCR4 remain the only known CAMs for this receptor. […] Methods: Preparation of membranes and competition binding experiments with [125I]-CXCL12 (40 pM) were performed as described before for wild type CXCR4 (vide supra).

CXCR4 [24] = target: T2, CXCR4; assay: Competition binding, displacement of [^125I]-CXCL12 on membranes from HEK293T cells transiently expressing CXCR4; conditions: maximal displacement; membranes from HEK293T cells transiently expressing CXCR4; mean ± S.E.M.
Protocol: as §1, §2, §3, §4

[25] = maximal displacement, mean ± S.E.M.

T1 sequence (P61073 whole entry N119A): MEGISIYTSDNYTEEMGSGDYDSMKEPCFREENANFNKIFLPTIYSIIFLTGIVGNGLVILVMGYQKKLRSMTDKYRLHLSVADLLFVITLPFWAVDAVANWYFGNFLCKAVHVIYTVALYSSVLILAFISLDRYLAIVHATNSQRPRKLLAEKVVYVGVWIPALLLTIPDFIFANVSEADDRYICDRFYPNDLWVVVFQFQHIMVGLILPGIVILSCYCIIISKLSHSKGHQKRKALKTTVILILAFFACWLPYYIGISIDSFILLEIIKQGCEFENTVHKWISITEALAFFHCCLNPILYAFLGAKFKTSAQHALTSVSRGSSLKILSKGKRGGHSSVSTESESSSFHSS
T2 sequence (P61073 whole entry): as the sequence (P61073 whole entry N119A) above, with A119N counted along it
Sequence of wildtype human CXCR4 (pcDNA3.1-CXCR4, expressed in HEK293T) (human) (P61073 whole entry): as the sequence (P61073 whole entry N119A) above, with A119N counted along it
Sequence of CXCR4 mutation library clone 709 (P163L, S178I) (human) (P61073 whole entry P163L/S178I): as the sequence (P61073 whole entry N119A) above, with A119N, P163L, S178I counted along it
Sequence of CXCR4 mutation library clone 3728 (D187A, Y157C) (human) (P61073 whole entry Y157C/D187A): as the sequence (P61073 whole entry N119A) above, with A119N, Y157C, D187A counted along it
Sequence of CXCR4 mutation library clone 3630 (W195R) (human) (P61073 whole entry W195R): as the sequence (P61073 whole entry N119A) above, with A119N, W195R counted along it
Sequence of CXCR4 mutation library clone 3622 (E277G) (human) (P61073 whole entry E277G): as the sequence (P61073 whole entry N119A) above, with A119N, E277G counted along it
Sequence of CXCR4 mutation library clone 914 (N192K) (P61073 whole entry N192K): as the sequence (P61073 whole entry N119A) above, with A119N, N192K counted along it
Sequence of CXCR4 mutation library clone 414 (C218R, E179V, S351T) (human) (P61073 whole entry E179V/C218R/S351T): as the sequence (P61073 whole entry N119A) above, with A119N, E179V, C218R, S351T counted along it
Sequence of CXCR4 mutation library clone 913 (F189S, K308R) (human) (P61073 whole entry F189S/K308R): as the sequence (P61073 whole entry N119A) above, with A119N, F189S, K308R counted along it
Sequence of CXCR4 mutation library clone 185 (E277A, I245V, N298S) (human) (P61073 whole entry I245V/E277A/N298S): as the sequence (P61073 whole entry N119A) above, with A119N, I245V, E277A, N298S counted along it
Sequence of CXCR4 mutation library clone 2270 (V196E) (human) (P61073 whole entry V196E): as the sequence (P61073 whole entry N119A) above, with A119N, V196E counted along it
Sequence of CXCR4 mutation library clone 2834 (E179V, G258E) (human) (P61073 whole entry E179V/G258E): as the sequence (P61073 whole entry N119A) above, with A119N, E179V, G258E counted along it
Sequence of CXCR4 mutation library clone 465 (F189L, S319P, V155E) (human) (P61073 whole entry V155E/F189L/S319P): as the sequence (P61073 whole entry N119A) above, with A119N, V155E, F189L, S319P counted along it
Sequence of CXCR4 mutation library clone 1057 (K230E, S178R) (human) (P61073 whole entry S178R/K230E): as the sequence (P61073 whole entry N119A) above, with A119N, S178R, K230E counted along it
Sequence of CXCR4 mutation library clone 2396 (S178C) (human) (P61073 whole entry S178C): as the sequence (P61073 whole entry N119A) above, with A119N, S178C counted along it
Sequence of CXCR4 mutation library clone 2184 (P191T) (human) (P61073 whole entry P191T): as the sequence (P61073 whole entry N119A) above, with A119N, P191T counted along it
Sequence of CXCR4 mutation library clone 2084 (D187V) (human) (P61073 whole entry D187V): as the sequence (P61073 whole entry N119A) above, with A119N, D187V counted along it
Sequence of CXCR4 mutation library clone 1129 (F189V) (human) (P61073 whole entry F189V): as the sequence (P61073 whole entry N119A) above, with A119N, F189V counted along it

Molecule: c1cc(CN2CCCNCCNCCCNCC2)ccc1CN1CCCNCCNCCCNCC1 [AMD3100, reference compound]
displacement of [^125I]-238D2 (in words) (CXCR4 [21]): affinities comparable to those obtained against [^125I]-CXCL12
[^125I]-238D2 Displacem. (%) (CXCR4 [21]; [25]): 102 ± 1%
functional profile on CXCR4 (N119A) (in words) (CXCR4 (N119A) [20]): Only antagonistic but no significant inverse agonistic activities
displacement of [^125I]-238D4 (in words) (CXCR4 [22]): affinities comparable to those obtained against [^125I]-CXCL12
[^125I]-238D4 Displacem. (%) (CXCR4 [22]; [25]): 99 ± 4%
binding to CXCR4 (N119A) (in words) (CXCR4 (N119A) [23]): clearly bind to the mutant receptor
[^125I]-CXCL12 Displacem. (%) (CXCR4 [24]): 94 ± 2%

B1: L3: bivalent fusion product 238D2-15GS-238D4, SEQ ID NO: 4 (protein)
chain: EVQLVESGGGLVQTGGSLRLSCAASGFTFSSYAMSWVRQAPGKGLEWVSGIKSSGDSTRYAGSVKGRFTISRDNAKNMLYLQMYSLKPEDTAVYYCAKSRVSRTGLYTYDNRGQGTQVTVSSGGGGSGGGGSGGGGSEVQLMESGGGLVQAGGSLRLSCAASGRTFNNYAMGWFRRAPGKEREFVAAITRSGVRSGVSAIYGDSVKDRFTISRDNAKNTLYLQMNSLKPEDTAVYTCAASAIGSGALRRFEYDYSGQGTQVTVSS
modifications: Nanobody construct
reduction of the constitutively increased basal signalling of CXCR4 (N119A) (CXCR4 (N119A) [20]): 64%
functional profile on CXCR4 (N119A) (in words) (CXCR4 (N119A) [20]): partial inverse agonists
binding affinities to CXCR4 (N119A) compared to wild type (in words) (CXCR4 (N119A) [23]): somewhat less compared to the wild type receptor
binding to CXCR4 (N119A) (in words) (CXCR4 (N119A) [23]): able to bind to CXCR4 (N119A)

B2: L8: bivalent fusion product 238D2-20GS-238D4, SEQ ID NO: 5 (protein)
chain: EVQLVESGGGLVQTGGSLRLSCAASGFTFSSYAMSWVRQAPGKGLEWVSGIKSSGDSTRYAGSVKGRFTISRDNAKNMLYLQMYSLKPEDTAVYYCAKSRVSRTGLYTYDNRGQGTQVTVSSGGGGSGGGGSGGGGSGGGGSEVQLMESGGGLVQAGGSLRLSCAASGRTFNNYAMGWFRRAPGKEREFVAAITRSGVRSGVSAIYGDSVKDRFTISRDNAKNTLYLQMNSLKPEDTAVYTCAASAIGSGALRRFEYDYSGQGTQVTVSS
modifications: Nanobody construct
reduction of the constitutively increased basal signalling of CXCR4 (N119A) (CXCR4 (N119A) [20]): 65%
functional profile on CXCR4 (N119A) (in words) (CXCR4 (N119A) [20]): partial inverse agonists
binding affinities to CXCR4 (N119A) compared to wild type (in words) (CXCR4 (N119A) [23]): somewhat less compared to the wild type receptor
binding to CXCR4 (N119A) (in words) (CXCR4 (N119A) [23]): able to bind to CXCR4 (N119A)

Further lines, results first:

maximal displacement (%) [1]: 54%
pKi [1]: 9.19 pKi
% immunofluorescence [2]: 94.7%
% immunofluorescence [3]: 91.8%
% immunofluorescence [4]: 50.4%
% immunofluorescence [5]: 89.5%
% immunofluorescence [6]: -9.1%
% immunofluorescence [7]: 112%
% immunofluorescence [8]: 85.5%
% immunofluorescence [9]: 95.1%
% immunofluorescence [10]: 1.5%
% immunofluorescence [11]: 93.9%
% immunofluorescence [12]: 96.8%
% immunofluorescence [13]: 118%
% immunofluorescence [14]: 110%
% immunofluorescence [15]: 113%
% immunofluorescence [16]: 61.3%
% immunofluorescence [17]: 57.7%
maximal displacement (%) [18]: 90%
pKi [18]: 9.31 pKi
maximal displacement (%) [19]: 89%
pKi [19]: 9.65 pKi
Molecule: monoclonal antibody 12G5

stimulation of the mutant receptor (CXCR4 (N119A) [20]; inositol phosphate accumulation, CXCR4 (N119A)): 0.4 fold over basal
Molecule: CXCL12: CXCR4 reference ligand, human CXCL12 (SDF-1) [reference compound]
